Experimental data taken from paper PMC3535368, “Heme orientation modulates histidine dissociation and ligand binding kinetics in the hexacoordinated human neuroglobin” (Journal of Biological Inorganic Chemistry, 2012).
Substitutions are numbered along the chain they refer to. Where two headings read alike, the source gives them in different places.

B1: WTox (A isomer): oxidized wild-type human Ngb (Cys46-Cys55 disulfide bridge), A heme conformer (protein, UniProt Q9NPG2 1-151, looked up)
Neuroglobin: MERPEPELIRQSWRAVSRSPLEHGTVLFARLFALEPDLLPLFQYNCRQFSSPEDCLSSPEFLDHIRKVMLVIDAAVTNVEDLSSLEEYLASLGRKHRAVGVKLSSFSTVGESLLYMLEKCLGPAFTPATRAAWSQLYGAVVQAMSRGWDGE
modifications: oxidized, heme A isomer
B2: WTred (A isomer): DTT-reduced wild-type human Ngb, A heme conformer (protein, UniProt Q9NPG2 1-151, looked up)
Neuroglobin: B1 Neuroglobin
modifications: DTT-reduced, heme A conformer
B3: C120Sred (B isomer) (protein, UniProt Q9NPG2 1-151, looked up, variant C120S)
Neuroglobin: B1 Neuroglobin with C120S
modifications: reduced, heme B isomer
B4: C120Sox (B isomer) (protein, UniProt Q9NPG2 1-151, looked up, variant C120S)
Neuroglobin: B1 Neuroglobin with C120S
modifications: oxidized, heme B isomer
B5: C120Sox (A isomer) (protein, UniProt Q9NPG2 1-151, looked up, variant C120S)
Neuroglobin: B1 Neuroglobin with C120S
modifications: oxidized, heme A isomer
B6: C120Sred (A isomer) (protein, UniProt Q9NPG2 1-151, looked up, variant C120S)
Neuroglobin: B1 Neuroglobin with C120S
modifications: reduced, heme A isomer
B7: WTred: wild-type human Ngb with reduced cysteines, both heme isomers (protein, UniProt Q9NPG2 1-151, looked up)
Neuroglobin: B1 Neuroglobin
modifications: reduced cysteines
notes: wild-type human Ngb with reduced cysteines, both heme isomers
B8: WTred (B isomer): DTT-reduced wild-type human Ngb, B heme conformer (protein, UniProt Q9NPG2 1-151, looked up)
Neuroglobin: B1 Neuroglobin
modifications: DTT-reduced, heme B conformer
B9: human Ngb: human neuroglobin, hexacoordinated hemoprotein of brain and retina (protein, UniProt Q9NPG2 1-151, looked up)
Neuroglobin: B1 Neuroglobin
B10: WTox (B isomer): oxidized wild-type human Ngb (Cys46-Cys55 disulfide bridge), B heme conformer (protein, UniProt Q9NPG2 1-151, looked up)
Neuroglobin: B1 Neuroglobin
modifications: oxidized, heme B isomer

How the values were obtained:
[1] = for fraction of isomer remaining unbound (free) at equilibrium: end of reaction; for k off, off-rate of cyanide: estimated from K d and k obs; for Kd: read-out: K d, dissociation constant of cyanide, calculated from concentrations of free and bound species at equilibrium
[2] = Air reoxidation of the disulfide bridge followed by 1H NMR, cyanide omitted; assay type: physicochemical, human; conditions: no reducing agent, increase of WTox peak intensity
[3] = parameters: method as in PMID 15020597; conditions: UV-visible study; cited from earlier work
[4] = 500 μM KCN, 100 μM protein, 20 mM Tris-HCl pH 7.4, 298 K
[5] = calculated from T and 500 μM cyanide, 1/T = k obs[CN−]

Molecule	T, time constant of cyanide binding (exponential fit of heme methyl peak intensities) [1, 4] [min]	k obs, second-order association rate constant for cyanide binding [1, 5] [M⁻¹ s⁻¹]	k obs, second-order association rate constant for cyanide binding [1] [M⁻¹ s⁻¹]	T, time constant of cyanide binding (exponential fit of heme methyl peak intensities) ([1]; pH 7.4) [min]	also measured
B1	19	1.75			time after KCN injection at which CN− binding reaction was completed ([1]; judged from constant peak intensities, 500 μM KCN): 60 min
B2	127	0.26			fraction of isomer remaining unbound (free) at equilibrium ([1]; 500 μM KCN, 100 μM protein): about 42%; k off, off-rate of cyanide [1]: 3.9e-05 s⁻¹; Kd [1]: 153 µM
B3			0.13	255	
B4			0.28	119	
B5			1.85	18	
B6			0.24	138	
B7					rate (time) of air reoxidation of the disulfide bridge [2]: about 60 h
B8	265	0.12			fraction of isomer remaining unbound (free) at equilibrium ([1]; 500 μM KCN, 100 μM protein): ~24%; k off, off-rate of cyanide [1]: 3.9e-05 s⁻¹; Kd [1]: 316 µM
B9					k on,CN, rate of cyanide binding to the pentacoordinate state ([1]; estimated here): 6700 M⁻¹ s⁻¹; fast cyanide binding rate (biphasic) [3]: 1.65 M⁻¹ s⁻¹; slow cyanide binding rate (biphasic) [3]: 0.37 M⁻¹ s⁻¹
B10	97	0.34			time after which CN− binding reaction was hardly finished ([1]; 500 μM KCN): ~5 h
